Target: Gluconobacter oxydans dextran dextrinase Δ382C (Met1–Ser902) (Gluconobacter oxydans)
Experiment: SEC; gel filtration of purified Δ382C (Fig. S8); conditions not told in the text shown

Substance: Gluconobacter oxydans dextran dextrinase Δ382C (Met1–Ser902) (enzyme)
- stoichiometry N: 2

Reference: article PMC12446779, “Structural basis of transglucosylation in dextran dextrinase, a homolog of anomer-inverting GH15 glucoside hydrolases” (The Journal of Biological Chemistry, 2025)
